Experimental findings from paper PMC7335187 (2020) are described below.

T1: Atg8 (1-116) K26P (S. cerevisiae, UniProt P38182 1-116, K26P)
T1 sequence: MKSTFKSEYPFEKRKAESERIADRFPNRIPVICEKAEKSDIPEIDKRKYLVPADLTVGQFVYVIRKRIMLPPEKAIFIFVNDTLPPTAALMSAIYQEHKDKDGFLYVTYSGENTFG

The target in the first assay is GABARAP WT (human GABARAP 1-116) (human, UniProt O95166 1-116). The experiment in a line: ITC. A general note: Isothermal titration calorimetry measures the heat released or taken up as one component is titrated into another.
Chain of GABARAP WT (human GABARAP 1-116) (O95166 1-116): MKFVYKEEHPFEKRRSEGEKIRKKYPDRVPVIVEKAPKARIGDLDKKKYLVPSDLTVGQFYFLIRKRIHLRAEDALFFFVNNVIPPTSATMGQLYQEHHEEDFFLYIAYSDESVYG
For orientation: Kd means the constant that tells how readily two partners part at equilibrium. A low value points to tighter binding. As for GPEEDTDTEEGDDFELLDQSELDQIESELY [FAM134B444-470 WT peptide], the equilibrium dissociation constant (Kd) was 0.14 µM. Same read-out and setting: the value for GPHSSGNGNDFEMITKEELEQQTDY [SEC62355-376 WT peptide] was 0.19 µM. Same read-out and setting: the result for GPEEDTDTEEGDDFALLDQSALDQIESELY [FAM134B444-470 E456A E462A peptide] reads 3.39 µM; that for DDFELLDQY [FAM134B453-460 (Δhelix) peptide], 2.54 µM; that for NDFEMITKY [SEC62361-368 (Δhelix) peptide], 3.38 µM.

For the next assay, the target named is T1, Atg8 (1-116) K26P. The assay can be described thus: ITC.
EFPNDYDFAEDILDET [Atg40^237–252 M245A peptide] showed a Kd of 21.7 µM. Turning to TSTEAPNDYDFMEDILDET [Atg40 peptide F238A], the dissociation constant (Kd) is 4.31 µM. For the molecule TSTEFPNDADFMEDILDET [Atg40 peptide Y242A], the affinity, expressed as Kd, was 32.7 µM.
